According to patent publication US20250296912A1:

Molecular target: prostate specific antigen (Homo sapiens)

| Substance | IC50 (48 hour exposure), Prostate DuPro (trace PSA) [nM] | IC50 (48 hour exposure), Prostate LnCAP (positive PSA) [nM] |
| --- | --- | --- |
| Analog 216 (Illudin M-Pro-Ser-Ser-Gln-Chg-Ser-Ser-Hyp-Ac) (peptide) | 280 | 190 |
| Analog 215 (Illudin S-Pro-Ser-Ser-Gln-Chg-Ser-Ser-Hyp-Ac) (peptide) |  | > 20000 |
| Analog 210 (Ac-Hyp-Ser-Ser-Chg-Gln-Ser-Ser-Pro-O-(CH2)3-acylfulvene) (peptide) | 3500 | 810 |
